Measured values taken from patent publication EP4177273A1.

Columns and labels:
[1] = target: human Claudin 18 splice variant 2 (CLDN18.2) (human); test: cell-based or functional assay
[2] = target: human Claudin 18 splice variant 2 (CLDN18.2) (human); test: FACS with FITC-labeled IMAB362 on MiaPaCa-2-LVT cells 2 days after transduction with human CLDN18.2
[3] = target: human Claudin 18 splice variant 2 (CLDN18.2) (human); test: FACS with FITC-labeled IMAB362 on BxPC3-LVT cells 2 days after transduction with human CLDN18.2
[4] = target: human Claudin 18 splice variant 2 (CLDN18.2) (human); test: FACS with FITC-labeled IMAB362 on Patu8902-LVT cells 2 days after transduction with human CLDN18.2
[5] = target: human Claudin 18 splice variant 2 (CLDN18.2) (human); test: FACS with FITC-labeled IMAB362 on CAPAN1-LVT cells 2 days after transduction with human CLDN18.2
[6] = target: human Claudin 18 splice variant 2 (CLDN18.2) (human); test: FACS with FITC-labeled IMAB362 on HPAC-LVT cells 2 days after transduction with human CLDN18.2
[7] = target: human Claudin 18 splice variant 2 (CLDN18.2) (human); test: FACS with FITC-labeled IMAB362 on Suit2-LVT cells 2 days after transduction with human CLDN18.2
[8] = target: human Claudin 18 splice variant 2 (CLDN18.2) (human); test: FACS with FITC-labeled IMAB362 on YAPC-LVT cells 2 days after transduction with human CLDN18.2
[9] = target: human Claudin 18 splice variant 2 (CLDN18.2) (human); test: FACS with FITC-labeled IMAB362 on DANG-LVT cells 2 days after transduction with human CLDN18.2
[10] = target: human Claudin 18 splice variant 2 (CLDN18.2) (human); test: FACS, 2E5 Panc05.04 cells/100 µl stained with 50 µg/ml IMAB362
[11] = target: human Claudin 18 splice variant 2 (CLDN18.2) (human); test: FACS, 2E5 Patu8988S cells/100 µl stained with 50 µg/ml IMAB362

ADCC EC50 (ng/ml), BxPC3 LVT cells, human PBMC E:T 40:1 [1]: 47.7 ng/mL | ADCC EC50 (ng/ml), CAPAN1-LVT cells, human PBMC E:T 40:1 [1]: 65 ng/mL | ADCC EC50 (ng/ml), DANG cells (endogenous CLDN18.2), human PBMC E:T 40:1 [1]: 4980 ng/mL | ADCC EC50 (ng/ml), DANG-LVT cells, human PBMC E:T 40:1 [1]: 52.3 ng/mL | ADCC EC50 (ng/ml), HPAC-LVT cells, human PBMC E:T 40:1 [1]: 117 ng/mL | ADCC EC50 (ng/ml), MiaPaCa2-LVT cells, human PBMC E:T 40:1 [1]: 23.4 ng/mL | ADCC EC50 (ng/ml), Panc05.04 cells (endogenous CLDN18.2), human PBMC E:T 40:1 [1]: 5730 ng/mL | ADCC EC50 (ng/ml), Patu8902-LVT cells, human PBMC E:T 40:1 [1]: 49.2 ng/mL | ADCC EC50 (ng/ml), Patu8988S cells (endogenous CLDN18.2), human PBMC E:T 40:1 [1]: 175 ng/mL | ADCC EC50 (ng/ml), Suit2-LVT cells, human PBMC E:T 40:1 [1]: 73.2 ng/mL | ADCC EC50 (ng/ml), YAPC-LVT cells, human PBMC E:T 40:1 [1]: 29.5 ng/mL | ADCC EC50, DANG/Panc05.04 cells, PBMCs of different donors [1]: 0.1 to 38 µg/mL | ADCC EC50, Patu8988S cells, PBMCs of different donors [1]: 0.01 to 1.4 µg/mL | ADCC Max. lysis (%), BxPC3 LVT cells, human PBMC E:T 40:1 [1]: 90.6% | ADCC Max. lysis (%), CAPAN1-LVT cells, human PBMC E:T 40:1 [1]: 92.6% | ADCC Max. lysis (%), DANG cells (endogenous CLDN18.2), human PBMC E:T 40:1 [1]: 52.5% | ADCC Max. lysis (%), DANG-LVT cells, human PBMC E:T 40:1 [1]: 85.9% | ADCC Max. lysis (%), HPAC-LVT cells, human PBMC E:T 40:1 [1]: 76.2% | ADCC Max. lysis (%), MiaPaCa2-LVT cells, human PBMC E:T 40:1 [1]: 78.1% | ADCC Max. lysis (%), Panc05.04 cells (endogenous CLDN18.2), human PBMC E:T 40:1 [1]: 67.1% | ADCC Max. lysis (%), Patu8902-LVT cells, human PBMC E:T 40:1 [1]: 74.1% | ADCC Max. lysis (%), Patu8988S cells (endogenous CLDN18.2), human PBMC E:T 40:1 [1]: 70.1% | ADCC Max. lysis (%), Suit2-LVT cells, human PBMC E:T 40:1 [1]: 81.2% | ADCC Max. lysis (%), YAPC-LVT cells, human PBMC E:T 40:1 [1]: 91.5% | CDC EC50 (ng/ml), CAPAN1-LVT cells, human serum pool [1]: 970 ng/mL | CDC EC50 (ng/ml), MiaPaCa2-LVT cells, human serum pool [1]: 340 ng/mL | CDC EC50 (ng/ml), Patu8902-LVT cells, human serum pool [1]: 291 ng/mL | CDC EC50, MiaPaCa-2-LVT cells pretreated with gemcitabine [1]: 4.68 µg/mL | CDC EC50, MiaPaCa-2-LVT, Suit2-LVT and CAPAN1-LVT cells, human serum [1]: 0.3 to 2.6 µg/mL | CDC EC50, medium cultivated MiaPaCa-2-LVT cells [1]: 7.67 µg/mL | CDC Max. lysis (%), CAPAN1-LVT cells, human serum pool [1]: 79.1% | CDC Max. lysis (%), MiaPaCa2-LVT cells, human serum pool [1]: 78.4% | CDC Max. lysis (%), Patu8902-LVT cells, human serum pool [1]: 76.7% | Transduction efficiency (% cells positive) [2]: 96.3% | Transduction efficiency (% cells positive) [3]: 92.8% | Transduction efficiency (% cells positive) [4]: 93% | Transduction efficiency (% cells positive) [5]: 89.6% | Transduction efficiency (% cells positive) [6]: 97.3% | Transduction efficiency (% cells positive) [7]: 92.2% | Transduction efficiency (% cells positive) [8]: 82.2% | Transduction efficiency (% cells positive) [9]: 87.5% | CLDN18 surface expression (FACS), % positive cells [10]: 15% | CLDN18 surface expression (FACS), % positive cells [11]: 81.7%
Substance: IMAB362 (antibody)
